From patent US20170157198A1 (BAXALTA, published 2017)
[ ]: non-standard residue; d: D form. Aib = CC(C)(N)C(=O)O

Experiments:
[1] = biological target: T1, TFPI (human TFPI-1α), as coated or added in the ELISA and model assays (human, UniProt P10646 29-304, limits assumed); assay: cell-based or functional assay
[2] = biological target: T1, TFPI (human TFPI-1α), as coated or …; assay: ELISA affinity (column head says EC50)
murine TFPI = biological target: T2, murine TFPI (murine, UniProt O54819 29-289, limits assumed); assay: not specified
T2 construct: also called murine TFPI-1
T2 sequence (looked up): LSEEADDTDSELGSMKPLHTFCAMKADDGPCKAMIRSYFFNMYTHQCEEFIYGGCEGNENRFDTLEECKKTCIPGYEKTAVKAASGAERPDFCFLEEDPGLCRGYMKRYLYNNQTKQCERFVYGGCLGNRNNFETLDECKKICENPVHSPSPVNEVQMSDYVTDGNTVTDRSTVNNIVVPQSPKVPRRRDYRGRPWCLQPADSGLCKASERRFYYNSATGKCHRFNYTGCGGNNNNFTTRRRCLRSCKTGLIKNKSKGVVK

Ac-FQSK[dP]NVHVDGYFC(linear PEG 40 kDa)RL[Aib]AKL-NH2 [JBT2404]
FXa Inhibition EC50 [1]: 13.4 nM | EC50 [2]: 18.2 nM

B1: JBT2430 (peptide)
peptide: FQSKPNVHVDGYFERLXAKLK
modifications: not fully specified; K(AOA) coupled to PSA (polysialic acid) aldehyde; D-proline at 5; Aib at 17
FXa Inhibition EC50 [1]: 9 nM

B2: JBT2329 (peptide)
peptide: FQSKPNVHVDGYFERLXAKLC
modifications: N-terminal acetyl (Ac); D-proline at 5; Aib at 17; C-terminal C(PEG), linear PEG 41.5 kD; C-terminal amide (NH2)
binding result (murine TFPI): binds
